“And” between values parts separate entries of the source, which are not always exact repeats. Equal values may be shown once.
How the values were obtained:
Assay in all cases: cell-based or functional assay
[1] = target: HIV-1 92BR020 envelope glycoprotein (Env) on pseudovirus (HIV-1)
[2] = target: HIV-1 92RW020 envelope glycoprotein (Env) on pseudovirus (HIV-1)
[3] = target: HIV-1 93IN905 envelope glycoprotein (Env) on pseudovirus (HIV-1)
[4] = target: HIV-1 93UG077 envelope glycoprotein (Env) on pseudovirus (HIV-1)
[5] = target: HIV-1 94UG103 envelope glycoprotein (Env) on pseudovirus (HIV-1)
[6] = target: HIV-1 APV13 envelope glycoprotein (Env) on pseudovirus (HIV-1)
[7] = target: HIV-1 APV17 envelope glycoprotein (Env) on pseudovirus (HIV-1)
[8] = target: HIV-1 APV6 envelope glycoprotein (Env) on pseudovirus (HIV-1)
[9] = target: HIV-1 JRCSF envelope glycoprotein (Env) on pseudovirus (HIV-1) (UniProt P20871)
[10] = target: HIV-1 JRFL envelope glycoprotein (Env) on pseudovirus (HIV-1)
[11] = target: HIV-1 MGRM-A-010 envelope glycoprotein (Env) on pseudovirus (HIV-1)
[12] = target: HIV-1 MGRM-C-026 envelope glycoprotein (Env) on pseudovirus (HIV-1)
[13] = target: HIV-1 MGRM-C-027 envelope glycoprotein (Env) on pseudovirus (HIV-1)
[14] = target: HIV-1 MGRM-C-028 envelope glycoprotein (Env) on pseudovirus (HIV-1)
[15] = target: HIV-1 NL43 envelope glycoprotein (Env) on pseudovirus (HIV-1)
[16] = target: HIV-1 Env of pseudovirus 92TH021 (HIV-1)
[17] = target: HIV-1 Env of pseudovirus JRCSF (HIV-1) (UniProt P20871)
[18] = target: HIV-1 Env of pseudovirus MGRM-C-26 (HIV-1)
[19] = target: HIV-1 Env of pseudovirus 92BR020 (HIV-1)
[20] = target: HIV-1 Env of pseudovirus 94UG103 (HIV-1)

PGT-136 monoclonal antibody (5329_C19; 5366_P21), sequence (VH): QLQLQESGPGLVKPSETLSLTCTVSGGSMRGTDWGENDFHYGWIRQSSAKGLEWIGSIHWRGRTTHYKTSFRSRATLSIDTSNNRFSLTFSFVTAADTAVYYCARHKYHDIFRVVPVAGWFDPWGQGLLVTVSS
PGT-136 monoclonal antibody (5329_C19; 5366_P21), sequence (VL): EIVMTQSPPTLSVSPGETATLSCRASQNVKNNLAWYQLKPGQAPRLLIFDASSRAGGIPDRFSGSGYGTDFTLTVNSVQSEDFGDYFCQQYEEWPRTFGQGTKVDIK

Substance	IC50 neutralization [1] [µg/mL]	IC50 neutralization [2] [µg/mL]	IC50 neutralization [3] [µg/mL]	IC50 neutralization [4] [µg/mL]	IC50 neutralization [5] [µg/mL]	IC50 neutralization [6] [µg/mL]	IC50 neutralization [7] [µg/mL]	IC50 neutralization [8] [µg/mL]	IC50 neutralization [9] [µg/mL]	IC50 neutralization [10] [µg/mL]	IC50 neutralization [11] [µg/mL]	IC50 neutralization [12] [µg/mL]	IC50 neutralization [13] [µg/mL]	IC50 neutralization [14] [µg/mL]	IC50 neutralization [15] [µg/mL]	Primary Neutralization Index (B cell culture supernatant) [16]	Primary Neutralization Index (B cell culture supernatant) [17]	Primary Neutralization Index (B cell culture supernatant) [18]	Primary Neutralization Index (B cell culture supernatant) [19]	Primary Neutralization Index (B cell culture supernatant) [20]
PGT-130 monoclonal antibody (5147_N06)	1.12	0.014	0.0182	> 10	0.635	0.0345	> 10	> 10	0.0089	0.0346	0.0054	0.0173	0.0052	> 10	> 10					
PGT-126 monoclonal antibody (5141_B17)	0.0163	0.0046	0.0194	0.0256	0.0091	0.012	0.501	0.0249	0.0061	0.014	0.0033	0.0076	1.14	0.283	> 10					
PGT-125 monoclonal antibody (5123_A06)	0.0214	0.0028	0.0137	0.0262	0.0124	0.0128	7.31	0.0359	0.006	0.0156	0.0055	0.0106	> 10	5.78	> 10					
PGT-123 monoclonal antibody (4858_P08)	0.013	0.0038	0.0071	0.0303	0.846	0.222	0.18	0.0328	0.0423	0.0283	0.492	0.0031	0.0169	0.443	> 10					
PGT-136 monoclonal antibody (5329_C19; 5366_P21)	> 10	0.738	0.0135	> 10	> 10	> 10	> 10	> 10	> 10	> 10	> 10	0.0065	> 10	> 10	> 10					
Antibody of B cell culture well 5117_E22 (labelled PGT-133 in Table 26)																42.5	3.6	3.4		
PGT-121 (B cell culture wells 4838_L06 and 4873_E03) (antibody)																	3.2 and 2.2	996 and 371	4.9 and 3.6	1.4 and 0.8
PGT-135 monoclonal antibody (5343_B08; 5344_E16)	0.104	0.157	0.0183	> 10	> 10	0.545	> 10	> 10	0.113	> 10	> 10	0.0123	> 10	2.16	6.79					
1496_C09 (PG9) (TCN-109) monoclonal antibody		0.161	0.048		0.31			0.214	0.0048		0.0375	0.113	2.45	0.121	0.687					
PGT-121 monoclonal antibody (4838_L06; 4873_E03)															> 10					
PGT-122 (B cell culture well 4877_D15) (antibody)																	2.3	37.5	5.4	1.3
PGT-122 monoclonal antibody (4877_D15)	0.0337	0.0072	0.0138	0.191	1.46	0.992	0.522	0.0851	0.0727	0.0471	1.68	0.0089	0.0388	2.06	> 10					
Antibody of B cell culture well 5113_D22 (labelled PGT-132 in Table 26)																51	3	6		

— patent US20240132578A1
